Measured values published in US20150374794A1 (Novo Nordisk, published 2015).
Numbered stars: 1 amine (or outer) side, 2 acyl side, 3 side chain; on linkers, the order of the positions; unused ones are H or OH. Square brackets hold non-standard residues; d marks the D form. Side chains are listed from the residue outwards. Ends that are not written are not given here. * marks the point of attachment. C18 diacid = O=C(O)CCCCCCCCCCCCCCCCC(=O)*; γGlu = O=C(O)[C@H](CCC(=O)[*:2])N[*:1]; AEEA = NCCOCCOCC(=O)O; Aib = CC(C)(N)C(=O)O

B1: N^ε28-[(4S)-4-carboxy-4-[[(4S)-4-carboxy-4-[[(4S)-4-carboxy-4-(17-carboxyheptadecanoylamino)butanoyl]amino]butanoyl]amino]butanoyl]-[Aib2,Leu10,Arg12,Ala16,Arg2 … (peptide)
peptide: H[Aib]QGTFTSDLSRYLDARRARDFVQWLLK([γGlu-γGlu-γGlu-C18 diacid])T-NH2
modifications: N-terminus assumed
SMILES: CC(C)C[C@H](NC(=O)[C@H](Cc1ccc(O)cc1)NC(=O)[C@H](CCCNC(=N)N)NC(=O)[C@H](CO)NC(=O)[C@H](CC(C)C)NC(=O)[C@H](CC(=O)O)NC(=O)[C@H](CO)NC(=O)[C@@H](NC(=O)[C@H](Cc1ccccc1)NC(=O)[C@@H](NC(=O)CNC(=O)[C@H](CCC(N)=O)NC(=O)C(C)(C)NC(=O)[C@@H](N)Cc1c[nH]cn1)[C@@H](C)O)[C@@H](C)O)C(=O)N[C@@H](CC(=O)O)C(=O)N[C@@H](C)C(=O)N[C@@H](CCCNC(=N)N)C(=O)N[C@@H](CCCNC(=N)N)C(=O)N[C@@H](C)C(=O)N[C@@H](CCCNC(=N)N)C(=O)N[C@@H](CC(=O)O)C(=O)N[C@@H](Cc1ccccc1)C(=O)N[C@H](C(=O)N[C@@H](CCC(N)=O)C(=O)N[C@@H](Cc1c[nH]c2ccccc12)C(=O)N[C@@H](CC(C)C)C(=O)N[C@@H](CC(C)C)C(=O)N[C@@H](CCCCNC(=O)CC[C@H](NC(=O)CC[C@H](NC(=O)CC[C@H](NC(=O)CCCCCCCCCCCCCCCCC(=O)O)C(=O)O)C(=O)O)C(=O)O)C(=O)N[C@H](C(N)=O)[C@@H](C)O)C(C)C
B2: N^ε29-[(4S)-4-carboxy-4-[[(4S)-4-carboxy-4-[[2-[2-[2-[[2-[2-[2-[[(4S)-4-carboxy-4-(17-carboxyheptadecanoylamino)butanoyl]amino]ethoxy]ethoxy]acetyl]amino]ethoxy … (peptide)
peptide: H[Aib]QGTFTSDLSKYLDSKAAQEFVQWLLNK([γGlu-γGlu-AEEA-AEEA-γGlu-C18 diacid])-NH2
modifications: N-terminus assumed
SMILES: CC(C)C[C@H](NC(=O)[C@H](CC(C)C)NC(=O)[C@H](Cc1c[nH]c2ccccc12)NC(=O)[C@H](CCC(N)=O)NC(=O)[C@@H](NC(=O)[C@H](Cc1ccccc1)NC(=O)[C@H](CCC(=O)O)NC(=O)[C@H](CCC(N)=O)NC(=O)[C@H](C)NC(=O)[C@H](C)NC(=O)[C@H](CCCCN)NC(=O)[C@H](CO)NC(=O)[C@H](CC(=O)O)NC(=O)[C@H](CC(C)C)NC(=O)[C@H](Cc1ccc(O)cc1)NC(=O)[C@H](CCCCN)NC(=O)[C@H](CO)NC(=O)[C@H](CC(C)C)NC(=O)[C@H](CC(=O)O)NC(=O)[C@H](CO)NC(=O)[C@@H](NC(=O)[C@H](Cc1ccccc1)NC(=O)[C@@H](NC(=O)CNC(=O)[C@H](CCC(N)=O)NC(=O)C(C)(C)NC(=O)[C@@H](N)Cc1c[nH]cn1)[C@@H](C)O)[C@@H](C)O)C(C)C)C(=O)N[C@@H](CC(N)=O)C(=O)N[C@@H](CCCCNC(=O)CC[C@H](NC(=O)CC[C@H](NC(=O)COCCOCCNC(=O)COCCOCCNC(=O)CC[C@H](NC(=O)CCCCCCCCCCCCCCCCC(=O)O)C(=O)O)C(=O)O)C(=O)O)C(N)=O
B3: N^ε29-[(4S)-4-carboxy-4-[[2-[2-[2-[[2-[2-[2-[[(4S)-4-carboxy-4-[[(4S)-4-carboxy-4-(17-carboxyheptadecanoylamino)butanoyl]amino]butanoyl]amino]ethoxy]ethoxy]acet … (peptide)
peptide: H[Aib]QGTFTSDLSKYLESRRAREFVQWLLNK([γGlu-AEEA-AEEA-γGlu-γGlu-C18 diacid])-NH2
modifications: N-terminus assumed
SMILES: CC(C)C[C@H](NC(=O)[C@H](CC(C)C)NC(=O)[C@H](Cc1c[nH]c2ccccc12)NC(=O)[C@H](CCC(N)=O)NC(=O)[C@@H](NC(=O)[C@H](Cc1ccccc1)NC(=O)[C@H](CCC(=O)O)NC(=O)[C@H](CCCNC(=N)N)NC(=O)[C@H](C)NC(=O)[C@H](CCCNC(=N)N)NC(=O)[C@H](CCCNC(=N)N)NC(=O)[C@H](CO)NC(=O)[C@H](CCC(=O)O)NC(=O)[C@H](CC(C)C)NC(=O)[C@H](Cc1ccc(O)cc1)NC(=O)[C@H](CCCCN)NC(=O)[C@H](CO)NC(=O)[C@H](CC(C)C)NC(=O)[C@H](CC(=O)O)NC(=O)[C@H](CO)NC(=O)[C@@H](NC(=O)[C@H](Cc1ccccc1)NC(=O)[C@@H](NC(=O)CNC(=O)[C@H](CCC(N)=O)NC(=O)C(C)(C)NC(=O)[C@@H](N)Cc1c[nH]cn1)[C@@H](C)O)[C@@H](C)O)C(C)C)C(=O)N[C@@H](CC(N)=O)C(=O)N[C@@H](CCCCNC(=O)CC[C@H](NC(=O)COCCOCCNC(=O)COCCOCCNC(=O)CC[C@H](NC(=O)CC[C@H](NC(=O)CCCCCCCCCCCCCCCCC(=O)O)C(=O)O)C(=O)O)C(=O)O)C(N)=O
B4: N^ε29-[(4S)-4-carboxy-4-[[(4S)-4-carboxy-4-[[2-[2-[2-[[2-[2-[2-[[(4S)-4-carboxy-4-(17-carboxyheptadecanoylamino)butanoyl]amino]ethoxy]ethoxy]acetyl]amino]ethoxy … (peptide)
peptide: H[Aib]QGTFTSDLSKYLDARRARDFVQWLLSK([γGlu-γGlu-AEEA-AEEA-γGlu-C18 diacid])-NH2
modifications: N-terminus assumed
SMILES: CC(C)C[C@H](NC(=O)[C@H](Cc1ccc(O)cc1)NC(=O)[C@H](CCCCN)NC(=O)[C@H](CO)NC(=O)[C@H](CC(C)C)NC(=O)[C@H](CC(=O)O)NC(=O)[C@H](CO)NC(=O)[C@@H](NC(=O)[C@H](Cc1ccccc1)NC(=O)[C@@H](NC(=O)CNC(=O)[C@H](CCC(N)=O)NC(=O)C(C)(C)NC(=O)[C@@H](N)Cc1c[nH]cn1)[C@@H](C)O)[C@@H](C)O)C(=O)N[C@@H](CC(=O)O)C(=O)N[C@@H](C)C(=O)N[C@@H](CCCNC(=N)N)C(=O)N[C@@H](CCCNC(=N)N)C(=O)N[C@@H](C)C(=O)N[C@@H](CCCNC(=N)N)C(=O)N[C@@H](CC(=O)O)C(=O)N[C@@H](Cc1ccccc1)C(=O)N[C@H](C(=O)N[C@@H](CCC(N)=O)C(=O)N[C@@H](Cc1c[nH]c2ccccc12)C(=O)N[C@@H](CC(C)C)C(=O)N[C@@H](CC(C)C)C(=O)N[C@@H](CO)C(=O)N[C@@H](CCCCNC(=O)CC[C@H](NC(=O)CC[C@H](NC(=O)COCCOCCNC(=O)COCCOCCNC(=O)CC[C@H](NC(=O)CCCCCCCCCCCCCCCCC(=O)O)C(=O)O)C(=O)O)C(=O)O)C(N)=O)C(C)C
B5: N^ε29-[(4S)-4-carboxy-4-[[(4S)-4-carboxy-4-[[2-[2-[2-[[2-[2-[2-[[(4S)-4-carboxy-4-(17-carboxyheptadecanoylamino)butanoyl]amino]ethoxy]ethoxy]acetyl]amino]ethoxy … (peptide)
peptide: H[Aib]QGTFTSDLSKYLDSRAAREFVQWLLNK([γGlu-γGlu-AEEA-AEEA-γGlu-C18 diacid])-NH2
modifications: N-terminus assumed
SMILES: CC(C)C[C@H](NC(=O)[C@H](CC(C)C)NC(=O)[C@H](Cc1c[nH]c2ccccc12)NC(=O)[C@H](CCC(N)=O)NC(=O)[C@@H](NC(=O)[C@H](Cc1ccccc1)NC(=O)[C@H](CCC(=O)O)NC(=O)[C@H](CCCNC(=N)N)NC(=O)[C@H](C)NC(=O)[C@H](C)NC(=O)[C@H](CCCNC(=N)N)NC(=O)[C@H](CO)NC(=O)[C@H](CC(=O)O)NC(=O)[C@H](CC(C)C)NC(=O)[C@H](Cc1ccc(O)cc1)NC(=O)[C@H](CCCCN)NC(=O)[C@H](CO)NC(=O)[C@H](CC(C)C)NC(=O)[C@H](CC(=O)O)NC(=O)[C@H](CO)NC(=O)[C@@H](NC(=O)[C@H](Cc1ccccc1)NC(=O)[C@@H](NC(=O)CNC(=O)[C@H](CCC(N)=O)NC(=O)C(C)(C)NC(=O)[C@@H](N)Cc1c[nH]cn1)[C@@H](C)O)[C@@H](C)O)C(C)C)C(=O)N[C@@H](CC(N)=O)C(=O)N[C@@H](CCCCNC(=O)CC[C@H](NC(=O)CC[C@H](NC(=O)COCCOCCNC(=O)COCCOCCNC(=O)CC[C@H](NC(=O)CCCCCCCCCCCCCCCCC(=O)O)C(=O)O)C(=O)O)C(=O)O)C(N)=O
B6: N^ε29-[(4S)-4-carboxy-4-[[(4S)-4-carboxy-4-[[2-[2-[2-[[2-[2-[2-[[(4S)-4-carboxy-4-(17-carboxyheptadecanoylamino)butanoyl]amino]ethoxy]ethoxy]acetyl]amino]ethoxy … (peptide)
peptide: H[Aib]QGTFTSDLSKYLDARRARDFVQWLLNK([γGlu-γGlu-AEEA-AEEA-γGlu-C18 diacid])-NH2
modifications: N-terminus assumed
SMILES: CC(C)C[C@H](NC(=O)[C@H](Cc1ccc(O)cc1)NC(=O)[C@H](CCCCN)NC(=O)[C@H](CO)NC(=O)[C@H](CC(C)C)NC(=O)[C@H](CC(=O)O)NC(=O)[C@H](CO)NC(=O)[C@@H](NC(=O)[C@H](Cc1ccccc1)NC(=O)[C@@H](NC(=O)CNC(=O)[C@H](CCC(N)=O)NC(=O)C(C)(C)NC(=O)[C@@H](N)Cc1c[nH]cn1)[C@@H](C)O)[C@@H](C)O)C(=O)N[C@@H](CC(=O)O)C(=O)N[C@@H](C)C(=O)N[C@@H](CCCNC(=N)N)C(=O)N[C@@H](CCCNC(=N)N)C(=O)N[C@@H](C)C(=O)N[C@@H](CCCNC(=N)N)C(=O)N[C@@H](CC(=O)O)C(=O)N[C@@H](Cc1ccccc1)C(=O)N[C@H](C(=O)N[C@@H](CCC(N)=O)C(=O)N[C@@H](Cc1c[nH]c2ccccc12)C(=O)N[C@@H](CC(C)C)C(=O)N[C@@H](CC(C)C)C(=O)N[C@@H](CC(N)=O)C(=O)N[C@@H](CCCCNC(=O)CC[C@H](NC(=O)CC[C@H](NC(=O)COCCOCCNC(=O)COCCOCCNC(=O)CC[C@H](NC(=O)CCCCCCCCCCCCCCCCC(=O)O)C(=O)O)C(=O)O)C(=O)O)C(N)=O)C(C)C

Tests used:
human glucagon receptor [1] = target: T1, human glucagon receptor (human, UniProt P47871 26-477); experiment: cell-based or functional assay
human GLP-1 receptor [2] = target: T2, human GLP-1 receptor (human, UniProt P43220 24-463); experiment: cell-based or functional assay
human GLP-1 receptor [3] = target: T2, human GLP-1 receptor; experiment: displacement of 125I-GLP-1(7-36)NH2, membranes with human GLP-1R, SPA
Description: (§1) The receptor binding of each compound to the human GLP-1 receptor was measured in a displacement binding assay. […] Each derivative was added in a series of concentrations to isolated membranes containing the human GLP-1 receptor and displacement of the labelled ligand was monitored. The receptor binding was reported as the concentration at which half of the labelled ligand was displaced from the receptor, the IC₅₀ value.

human glucagon receptor [4] = target: T1, human glucagon receptor; experiment: displacement of 125I-glucagon, membranes with human glucagon receptor, SPA
Description: as §1, with “human glucagon” for “human GLP-1”, “ligand is” for “ligand was”

T1 sequence (P47871 26-477): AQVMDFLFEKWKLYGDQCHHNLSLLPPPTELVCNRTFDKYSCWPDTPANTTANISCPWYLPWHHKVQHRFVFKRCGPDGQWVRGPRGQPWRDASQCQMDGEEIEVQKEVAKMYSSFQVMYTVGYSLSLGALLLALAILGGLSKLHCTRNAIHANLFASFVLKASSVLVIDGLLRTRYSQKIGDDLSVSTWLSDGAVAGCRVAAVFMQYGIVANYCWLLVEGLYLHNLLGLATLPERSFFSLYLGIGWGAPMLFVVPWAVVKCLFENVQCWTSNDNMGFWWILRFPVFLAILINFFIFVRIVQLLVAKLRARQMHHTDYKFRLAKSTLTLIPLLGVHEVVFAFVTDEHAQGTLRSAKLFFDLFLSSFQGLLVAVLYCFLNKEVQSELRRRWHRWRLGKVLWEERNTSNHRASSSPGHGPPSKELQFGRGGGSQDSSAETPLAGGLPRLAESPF

Binder	EC50 GlucR, CRE luciferase reporter gene assay in BHK cells (human glucagon receptor [1])	EC50 GLP-1R, CRE luciferase reporter gene assay in BHK cells (human GLP-1 receptor [2])	IC50 (human GLP-1 receptor [3])	IC50 (human glucagon receptor [4])
B1	0.01 nM	0.008 nM	0.2 nM	3.9 nM
B2	1.13 nM	0.0296 nM	1.1 nM	6.7 nM
B3	0.24 nM	0.0027 nM	0.3 nM	51 nM
B4	0.047 nM	0.005 nM	0.6 nM	10.4 nM
B5	0.699 nM	0.0032 nM	0.2 nM	381 nM
B6	0.044 nM	0.006 nM	0.5 nM	17 nM
H[Aib]QGTFTSDLSKYLDKRRAREFVAWLLNT-NH2 (not fully specified (residue 16))	0.0399 nM	0.0047 nM	0.9 nM	8.5 nM
